Reference: US20030175270A1, “Methods of regulating cytokine receptor signaling” (priority 2002, published 2003)

B1: lambda PTPase: bacterial lambda PTPase, from Calbiochem (protein)
chain: MRYYEKIDGSKYRNIWVVGDLHGCYTNLMNKLDTIGFDNKKDLLISVGDLVDRGAENVECLELITFPWFRAVRGNHEQMMIDGLSERGNVNHWLLNGGGWFFNLDYDKEILAKALAHKADELPLIIELVSKDKKYVICHADYPFDEYEFGKPVDHQQVIWNRERISNSQNGIVKEIKGADTFIFGHTPAVKPLKFANQMYIDTGAVFCGNLTLIQVQGEGA
B2: TC-PTP: human non-receptor tyrosine PTPase, from Calbiochem (protein)
chain: MPTTIEREFEELDTQRRWQPLYLEIRNESHDYPHRVAKFPENRNRNRYRDVSPYDHSRVKLQNAENDYINASLVDIEEAQRSYILTQGPLPNTCCHFWLMVWQQKTKAVVMLNRIVEKESVKCAQYWPTDDQEMLFKETGFSVKLLSEDVKSYYTVHLLQLENINSGETRTISHFHYTTWPDFGVPESPASFLNFLFKVRESGSLNPDHGPAVIHCSAGIGRSGTFSLVDTCLVLMEKGDDINIKQVLLNMRKYRMGLIQTPDQLRFSYMAIIEGAKCIKGDSSIQKRWKELSKEDLSPAFDHSPNKIMTEKYNGNR
B3: PTPase-dead rCD45: PTPase-dead recombinant CD45, D1:C828S mutant (protein, UniProt P08575 26-1306, looked up, variant C828S)
Receptor-type …: QSPTPSPTGLTTAKMPSVPLSSDPLPTHTTAFSPASTFERENDFSETTTSLSPDNTSTQVSPDSLDNASAFNTTGVSSVQTPHLPTHADSQTPSAGTDTQTFSGSAANAKLNPTPGSNAISDVPGERSTASTFPTDPVSPLTTTLSLAHHSSAALPARTSNTTITANTSDAYLNASETTTLSPSGSAVISTTTIATTPSKPTCDEKYANITVDYLYNKETKLFTAKLNVNENVECGNNTCTNNEVHNLTECKNASVSISHNSCTAPDKTLILDVPPGVEKFQLHDCTQVEKADTTICLKWKNIETFTCDTQNITYRFQCGNMIFDNKEIKLENLEPEHEYKCDSEILYNNHKFTNASKIIKTDFGSPGEPQIIFCRSEAAHQGVITWNPPQRSFHNFTLCYIKETEKDCLNLDKNLIKYDLQNLKPYTKYVLSLHAYIIAKVQRNGSAAMCHFTTKSAPPSQVWNMTVSMTSDNSMHVKCRPPRDRNGPHERYHLEVEAGNTLVRNESHKNCDFRVKDLQYSTDYTFKAYFHNGDYPGEPFILHHSTSYNSKALIAFLAFLIIVTSIALLVVLYKIYDLHKKRSCNLDEQQELVERDDEKQLMNVEPIHADILLETYKRKIADEGRLFLAEFQSIPRVFSKFPIKEARKPFNQNKNRYVDILPYDYNRVELSEINGDAGSNYINASYIDGFKEPRKYIAAQGPRDETVDDFWRMIWEQKATVIVMVTRCEEGNRNKCAEYWPSMEEGTRAFGDVVVKINQHKRCPDYIIQKLNIVNKKEKATGREVTHIQFTSWPDHGVPEDPHLLLKLRRRVNAFSNFFSGPIVVHSSAGVGRTGTYIGIDAMLEGLEAENKVDVYGYVVKLRRQRCLMVQVEAQYILIHQALVEYNQFGETEVNLSELHPYLHNMKKRDPPSEPSPLEAEFQRLPSYRSWRTQHIGNQEENKSKNRNSNVIPYDYNRVPLKHELEMSKESEHDSDESSDDDSDSEEPSKYINASFIMSYWKPEVMIAAQGPLKETIGDFWQMIFQRKVKVIVMLTELKHGDQEICAQYWGEGKQTYGDIEVDLKDTDKSSTYTLRVFELRHSKRKDSRTVYQYQYTNWSVEQLPAEPKELISMIQVVKQKLPQKNSSEGNKHHKSTPLLIHCRDGSQQTGIFCALLNLLESAETEEVVDIFQVVKALRKARPGMVSTFEQYQFLYDVIASTYPAQNGQVKKNNHQEDKIEFDNEVDKVKQDANCVNPLGAPEKLPEAKEQAEGSEPTSGTEGPEHSVNGPASPALNQGS

system: JAK2; test: in vitro tyrosine phosphatase assay, substrate JAK2; format: biochemical, mouse; conditions: 30° C., 20 min
Procedure: For tyrosine phosphatase assays, immunoprecipitated Lyn, JAKs or STATs from lysates of 10^7 BMMCs (for Lyn, JAK1, JAK2, STAT3 and STAT5) or macrophages (for Tyk2) were washed in lysis buffer and phosphatase reaction buffer [Felberg et al., J. Biol. Chem. 273:17839-17845, 1998]. The amounts of Lyn and JAK2 in the immunoprecipitates used in FIG. 3A were 72 ng and 48 ng, respectively, as determined by silver staining. Recombinant CD45 was added to substrates in the presence or absence of 0.1 mM Na3 VO4 followed by incubation at 30° C. for 20 min. Tyrosine phosphorylation was monitored by immunoblotting with phosphotyrosine-specific antibodies. The extent of tyrosine phosphorylation and amount of substrates were determined by quantifying the intensities of the immunoblots with NIH Image 1.61 software. Kinase activity in anti-Lyn or anti-JAK immunoprecipitates was assessed by an in vitro kinase assay with Raytide (Oncogen Science) as a substrate or using authophosphorylation [Lui et al., Genes Dev. 13:786-791, 1999]. In vitro binding assays were performed as described [Felberg et al., J. Biol. Chem. 273:17839-17845, 1998], using 1 μg of soluble GST, GST-CD45-D2, or GST-PTPase-dead CD45 (D1:C828S). EMSAs were as described [Charurvedi et al., Mol. Cell. Biol. 17:3295-3304, 1997]. The sequences of the EMSA probes were: STAT3, 5′-[…]-3′ (SEQ ID NO: 1); STAT3 mutant, 5′-[…]-3′ (SEQ ID NO: 2).
To determine whether CD45 could directly dephosphorylate JAKs and/or STATs, phosphatase assays were used in in vitro studies with recombinant CD45. The rCD45 employed contained the intracellular dual PTPase domains with a relative molecular mas of 97,000 (Mr 97K) (the catalytic D1 and the non-catalytic D2 domains) of CD45 but lacked its extracellular regions. […] Phosphorylation was examined with anti-phosphoryrosine, anti-phospho-Tyr 705 STAT3 (P-Y705-STAT3), and anti-phospho-Try 1007/Try 1008 JAK2 (P-Y1007/1008-JAK2). Assays were performed with 10U (for JAK2) or 90U (for STAT3) of rCD45. […]

Dephosphorylation of JAK2, did not dephosphorylate JAK2:
B1
B2
B3
